From paper doi:10.1101/2025.08.13.670189

Assays:
Assay in all cases: EMSA
[1] = biological target: T1, LigR1 (Pseudomonas putida KT2440) (UniProt Q88JP0)
T1 sequence: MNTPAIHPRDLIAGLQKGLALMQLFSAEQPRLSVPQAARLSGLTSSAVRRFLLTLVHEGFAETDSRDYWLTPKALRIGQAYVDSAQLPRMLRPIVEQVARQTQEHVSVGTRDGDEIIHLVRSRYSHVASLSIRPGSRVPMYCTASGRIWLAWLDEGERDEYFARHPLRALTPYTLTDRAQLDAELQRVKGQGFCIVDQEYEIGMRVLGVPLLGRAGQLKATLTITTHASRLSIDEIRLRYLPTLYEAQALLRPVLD

[2] = biological target: T2, LigR2 (Pseudomonas putida KT2440) (UniProt Q88JP8)
T2 sequence: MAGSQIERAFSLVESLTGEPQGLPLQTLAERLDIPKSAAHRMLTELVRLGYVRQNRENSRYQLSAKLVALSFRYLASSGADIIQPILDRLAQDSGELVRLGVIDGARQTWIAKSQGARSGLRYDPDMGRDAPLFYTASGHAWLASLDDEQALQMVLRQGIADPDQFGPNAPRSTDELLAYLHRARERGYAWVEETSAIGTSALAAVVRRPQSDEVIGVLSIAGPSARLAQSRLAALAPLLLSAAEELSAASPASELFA

[3] = system: LigR2 (Pseudomonas putida KT2440)
[4] = system: LigR1 (Pseudomonas putida KT2440)

Substance	binding [1]	Kd [2] [nM]	Kd [3] [nM]	Kd [4] [nM]
GGTAATGCTGCCGGCCCATGATGCCGGCGCCAATCAAGGCAATACGAAGGGGTGCGTTCAACAGCCTGTCCTCTTGTCATTGTTGTTATGAAATTCTGAAACCGGGTTCCAAAATTCATACTCGACAATTTAGAACCAAGTTCAGCTTTTCAGAAGAACGGGCGCAACAGACTGTGCGGTAATCGACCGGAATATTCCCTCAGGCAAACAGCTCGCTGGCGGGACTGGCCGCCGACAGCTCTTCTGC (double strand) [lig2 intergenic region probe]	no binding	150		
lig2 intergenic region probe			150	
lig1 intergenic region probe			21600	220
